Data from paper PMC4131202 (Current biology : CB, 2013).

Target: muscle actin filaments (UniProt P68135 1-377)
Experiment: co-sedimentation

Kd: 2900 nM
B1: GST-Pan1(1633-1794), C-terminal fragment of fission yeast Pan1p including the A, PP and W domains (domain or fragment)
chain: PPAPSPLQPSGHDSDNWSQHGDEEEEDSEDDIRSSKDAAALAAKLFGGMAPAHPVSTPPVRPQSAAPPQMSAPTPPPPPMSVPPPPSAPPMPAGPPSAPPPPLPASSAPSVPNPGDRSALLQQIHTGTRLKKTVTTDKSKPIAGRVLDASDGNSSAWYGNLS
